Test: soluble on expression in E. coli; label from the status in PepcDB or PDB records

Soluble on expression in E. coli, soluble:
MSLEALFNPKSIAVIGASSKPGKIGYAIMKNLIEYGYEGKIYPVNIKGGEMEISGRKFKVYKSILEVPDEVDMAVIVVPAKSVPEVVEECGKKGVKVAPIISSGFGELGEEGKKVEQQLVETARKYGMRILGPNIFGVVYTPAKLNATFGPTDVLPGPLALISQSGALGIALMGWTILEKIGLSAVVSVGNKADIDDADLLEFFKDDENTKAILIYMEGVKDGRRFMEVAKEVSKKKPIIVIKAGRSERGAKAAASHTGSLAGSDTIYSAAFKQTGVLRALTIGEAFDWARALSNLPEPQGENVVIITNGGGIGVMATDAAEEEGLHLYDDLEQLKIFANHMPPFGSYKNPVDLTGMADAKSYEGAIRDALAHPDMHSIIVLYCQTAVLDPRELADVIIREYNESGRKKPLVVAIVGGIEAKQAIDVLNENGIPAYPEPERAVKALSALYKWSKWKAKHK
MSLEDQALFGYARYGKVDDVVYPSVIASGNGINYGDSDIEILGDRIPRQILYPAKIKQEILETDKLVIIPNGAELVRKPKDLVRIIMDIHSRYGFSKLIMISGISDPYSIPALVYLGISFFDSSILEMEGKMGYRFTPFGIEKADHDVSSENAIFISDMMHIIQRSISDGTLRELIEKAVISSKAAEMVRIADYSYYQDFESVFPVRTPYIKANTIEDLYRPDLIRYRNYISESYVKPDADIALILPCSAKKPYSRSKSHQKVIGALGNLRRFIHEVIVTSPIGIVPRDLEETYPARFYDIPVIGLWYEDEKIMMKRMMSSYMGRNRYRKVIAFIPEDLDFITEAIPYPHEVIEFKSSNLQRLREVIQREIAGGKAVNQKVAKYNSILRYQFGEWILPLVSGYTIRRNYNQDMIVKDGKILFVYNENLGKFTINKASADMFIKNGKFLVEIDDFKPTSNVYAMGVVDATEDIRQEDEVVLVHSGEVRGVGIAKMPARAMIELKKGIAVKVREGHHHHHH
MSLEGKTIGITAIGTDHDWDLKAYQAQIAEIERLGGTAIALDAGRNDQTQVSQIQTLIAQKPDAIIEQLGNLDVLNPWLQKINDAGIPLFTVDTATPHAINNTTSNNYSIGAELALQMVADLGGKGNVLVFNGFYSVPVCKIRYDQMKYVLEAFPDVKIIEPELRDVIPNTIQSAYSNVTDMLTKYPNEGDVGAIWACWDVPMIGATQALQAAGRTDIRTYGVDGSPEFVEMVADPESPAGAVAAQQPSEIGKLAVQNVARHLAGQEVKPFTFAPAVLITKENAAETAADFLPKEGHHHHHH
MSLEHLHELVGSVDVVLSDIWGVVHNGLESFPDACAALKTARDQGRTVVLITNAPRPADSVQRQLRKLDVPDDCYDAIVSSGDLTRIYVAEHPGQSIYWLGPDRDNSIYRGLDAVLTPLEKADYIICTGPFDDETESAEDYREMMGQALERKLTLVCANPDIVVERGDRLIYCAGAIAELYRELGGDVIFYGKPHRPIYDRAMALAREIRGVDTPVQRVLAIGDSVRTDLAGAQGYGIDLLFVTRGIHADAFEGIDRLDTAAVNELFGHPPLALTRELREGHHHHHH
MSLEKYNAEVERDPFANRVFEQEEKRELTSEQRIAYENIKEKINNSEQRTFLLHGVTGSGKTEVYLQTIEEVLNKGKEAMMLVPEIALTPQMVLRFKRRFGDDVAVLHSGLSNGERYDEWQKIRDGRARVSVGARSSIFAPFKNLGIIIIDEEHESTYKQEDYPRYHARDIAEWRSQFHQCPLVLGSATPSLESYARTEKGVYQLLTLPTRVNQQALPSIDIVDMREELSAGNRSMFSNELREAIEDRLRKNEQIVLFLNRRGYASFMLCRDCGYVPQCPHCDISLTYHKSTDQLKCHYCGYHEVPPNKCPNCESSHIRQVGTGTQRVEEILQQEFEEARIIRMDVDTTSRKGAHEKLLNEFEEGKGDILLGTQMIAKGLDYPNITLVGVLNADTMLNLPDFRASERTYQLLTQVAGRAGRHDKPGRVIIQTYNPEHYAIQDVQKNDYLTFYQKEMEYRKIGKYPPYYFLINFTISHKNMKKVMEASKHIHQILLQHLTDRALVLGPSPAAIARINNEHRFQILVKYKSEPELLKALQYLDDYYHEAYLKNKLALKIDINPQILMEGHHHHHH
MSLELKVSLDNITMTAYIKSKKYLAMKQLIETHLAITVQTAMTDMFRATTGDGIHVVLHMNYDKQKGQDRKARPFRLEFNPNKLRLVDSEIIDTIIPFLEDISISRADLAFDLFEVDCSEFVLEKKGRPTATKEFRSSTGTLETKYLGAPRSEKQVRLYNKKKEQLQNGTDKDKDFASQFKHWWRLEFQLRSRSIDEIFEVIDTIIFKPFNLKGLSIETQIYLTALIHDKNIWKKLHRNTRARYKKILETHQTSDTDYLGLLKDLLKHERPRLENQLAYYGGRIDKNSFQPFCEGHHHHHH

From the DeepSol protein solubility set
